Measured values taken from US6093692A, “Method and compositions for lipidization of hydrophilic molecules” (The University of Southern California, priority 1997, dated 2000).

Legend:
[1] = design: species or system CF-1 mice; settings: mouse, in vivo, iv, 3 mg/kg
Procedure: Female CF-1 mice, […], weighing 20-25 g each, with free access to food and water prior to the experiments, were used for the animal experiments. ^125 I-BBI (3 mg/kg), as native-BBI or as BBIssPal or BBIssOleic conjugate, was administered to the animals via the tail vein. At 0.5, 3, and 24 hr post-injection, 3 animals from each experiment group were sacrificed and their blood (200 μl), the kidneys, the lungs, and the liver were removed, rinsed in ice-cold PBS, and assayed for accumulated radioactivity. The weights of the organs were recorded and used to adjust the concentration of the conjugates in the organs.

[2] = format: in vitro ADME, hairless mice
Procedure: Freshly-prepared skins from hairless mice were mounted on small rings. To each mounted skin, a 5 μl sample of ^125 I-labeled BBI or BBIssPal at a concentration of 0.5 mg/ml was applied to an area of 0.38 cm^2. Two pieces of skin were used per treatment. The skins were kept at room temperature (23° C.) in a humidified environment. After 30 minutes, the surface of the skins was first rinsed carefully with PBS; subsequently, the skins were unmounted and soaked twice in 100 ml of PBS. The skins were then blotted with filter papers and counted in a gamma counter. The amount of BBI retained on the skins was calculated using the specific radioactivity of the labeled BBI or BBIssPal. The absorption of BBI and BBIssPal into the mouse skins was 0.14 and 1.6 μg/cm^2, respectively.

[3] = tested on: C3H 10T1/2(clone 8) cells; test: In vitro transformation assay (MCA-induced); format: cell-based
Procedure: Transformation assays were carried out using C3H 10T1/2(clone 8) cells according to the published recommendations [Reznikoff, C. A., et al., Cancer. Res., 33:3239-3249 (1973); Reznikoff, C. A., et al., Cancer. Res., 33:3231-3238 (1973)]. Stock cultures of mycoplasma-free cells were maintained by passing 50,000 cells per 75 cm^2 flask every seven days. Using this schedule, the cells were always passed approximately 2 days before reaching confluence. The stock culture was grown in Eagle's basal medium supplemented with 10% FBS, penicillin (100 units), and streptomycin (100 μg) and used for the transformation assays at passages of 9 to 14. The cells were passed by treating the stock cells with trypsin (0.1%) in PBS for 5 min and quenching the trypsin with 5 ml of the medium. This procedure was adapted to minimize spontaneous transformation in the stock cultures and maximize the plating efficiency in the petri dishes. The FBS stock used in the cultures was pre-screened to ensure that the serum was able to support the expression and the growth of the transformed cells.
For the transformation assays, C3H 10T1/2 cells (1000/dish) were seeded into 60 mm petri dishes and allowed to grow in a humidified 5% CO2 atmosphere in Eagle's basal medium, supplemented with 10% FBS, penicillin (100 units), and streptomycin (100 μg), for 24 hr. Subsequently, the cells were initiated by treatment with 25 μl of the 3-methylcholanthrene (MCA) in acetone stock solution ([…]) to a final concentration of 1 μg/ml of MCA (5 μg/5 ml). The cells were allowed to grow in the presence of the carcinogen or solvent for 24 hr, and the medium in each dish was then replaced with fresh medium containing no carcinogen or solvent. The medium in the dishes was replaced twice per week for the first two weeks of the assay, and thereafter once a week for the remainder four weeks of the assay. In the experiments designed to determine the transformation inhibitory activity of the conjugates, the cells were maintained in the medium containing the conjugates (1 μg/ml) for the first three weeks of the assay; thereafter, the cells were maintained in medium containing no added conjugates.
Six weeks after the carcinogen treatment, the cells were inspected under a microscope for adherence to the culture dishes and were washed with PBS and then fixed in 100% methanol. The fixed monolayers were then stained with Giemsa stain. Twenty dishes per group were treated in each experiment. In addition to the test groups, all the transformation assays contained at least three other groups: negative control (not treated with carcinogen or solvent), acetone control (treated with 25 μl of acetone), and positive control [treated with MCA (1 μg/ml) in 25 μl of acetone]. The transformed foci (>3 mm in diameter) in the plates were studied under a microscope and classified according to published guidelines as types I, II, or III [Landolph, J. R., Transfomatin assay of established cell lines: Mechanism and Application (ed. Kakunaga, T., and Yamasaki, H.) IARC Scientific Publications, Lyon, France pp. 185-201 (1985)]. Briefly, type III foci were dense, multilayered, basophilic, areas of cell growth which stained to a deep blue color with Giemsa and had rough crisscrossed edges. Type II foci were also dense, multilayered, areas of cell growth, but were stained to a purple color with Giemsa and had smoother, more defined edges compared to Type III foci. Type I foci were not scored in the assay.
BBI, either as the free protein or in conjugated form to palmitic or oleic acid, was added to the cultures at 1.0 μg/ml for the first three weeks of the transformation assay period starting immediately after the MCA treatment. MCA-treated cells were exposed to 3-methylcholanthrene, dissolved in 25 μl of acetone, at a concentration of 1 μg/ml for 24 hr. Acetone-treated cells were exposed to 25 μl of acetone for 24 hr only. […]

C3H 10T1/2 cells = test: Plating efficiency; format: cell-based
Procedure: The plating efficiency (PE) of the cells was also studied in conjunction with each of the transformation assays. To determine the PE of the cells in the different treatment groups, cells (200 cells/dish) were seeded into three 60-mm petri dishes per experiment group and treated in the identical manner as the transformation assay cells. The cells in these assays were terminated at 10 days, fixed with 100% methanol, and stained with giemsa; the colonies of 50 cells or more visible under a microscope were then counted. The plating efficiency is defined as the (number of colonies/number of cells seeded)×100%.

[4] = MCA 1 μg/ml 24 hr, conjugates 1.0 μg/ml first three weeks, scored at six weeks

B1: BBIssPal: the palmityl disulfide conjugate of BBI (conjugate, UniProt P01055 40-110, looked up)
Bowman-Birk type proteinase …: DDESSKPCCDQCACTKSNPPQCRCSDMRLNSCHSACKSCICALSYPAQCFCVDITDFCYEPCKPSEDDKEN
modifications: palmityl disulfide; 125I
notes: the palmityl disulfide conjugate of BBI
- Blood levels and removal from circulation [1]: accumulated in the blood at a relatively high level
- Kidney accumulation [1]: BBIssPal was not
- Kidney clearance, fold lower than native-BBI [1]: about 4 fold
- Liver accumulation, fold higher than BBI [1]: approximately 5 fold
- Lung accumulation/levels, fold higher than BBI [1]: approximately 2 fold
- Retention in the liver [1]: remained high in the liver even at 24 hr post-injection
- Increase of BBI absorption into the skin [2]: more than 10 fold
- Retention of anti-transformation activity of BBI ([3]; 1.0 μg/ml): retained the original biological activity of BBI
- Transformed foci ([3]; MCA 1 μg/ml 24 hr, conjugates 1.0 μg/ml first three weeks): one type II focus out of the 20 dishes
- Fraction of dishes containing transformed foci [3, 4]: 0.05
- No. of dishes with transformed foci/No. of dishes [3, 4]: 1/20
- Plating Efficiency (C3H 10T1/2 cells): 23 ± 3.0%
